Test results as given in publication PMC4510971.
pKd: −log10 of the molar value.

Legend:
Test in all cases: ITC; 0.450 mM UBN1 injected into a cell with 30 μM H3/H4, 22 °C; 20 mM HEPES pH 7.5, 750 mM NaCl, 1 mM TCEP
[1] = target: Asf1(1–169)/H3.3(60–135)/H4(20–102) (S. cerevisiae | X. laevis) (UniProt P32447)
[2] = target: H3.3(G90M)/H4 (human | X. laevis) (UniProt P62799)
[3] = target: H3.3(SAVM)/H4 (human | X. laevis) (UniProt P84243)

Sequence of UBN1(122–148) peptide (Q9NPG3 122-148): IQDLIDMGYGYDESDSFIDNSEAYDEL

pKd [1]: 3.96 | fold decrease in binding relative to H3.3 WT [2]: 3 fold | fold decrease in binding relative to H3.3 WT [3]: 3 fold
Substance: UBN1(122–148) peptide (from UniProt Q9NPG3 122-148)
